Results from IntAct's records for PubMed 19909339.

B1: Olfactory receptor 2AG1 (Homo sapiens), Q9H205 (parent)
chain: MELWNFTLGSGFILVGILNDSGSPELLCATITILYLLALISNGLLLLAITMEARLHMPMYLLLGQLSLMDLLFTSVVTPKALADFLRRENTISFGGCALQMFLALTMGGAEDLLLAFMAYDRYVAICHPLTYMTLMSSRACWLMVATSWILASLSALIYTVYTMHYPFCRAQEIRHLLCEIPHLLKVACADTSRYELMVYVMGVTFLIPSLAAILASYTQILLTVLHMPSNEGRKKALVTCSSHLTVVGMFYGAATFMYVLPSSFHSTRQDNIISVFYTIVTPALNPLIYSLRNKEVMRALRRVLGKYMLPAHSTL

Variants of: B1
Settings: with mpdz_human MPDZ

Variant	effect of a mutation on the interaction
S314W	disrupting interaction
L316W	disrupting interaction
